Source: patent US20250043285A1 (UNM RAINFOREST INNOVATIONS, published 2025)

T1: FLAG-VPS37A (full length) (UniProt Q8NEZ2 1-397)
T1 construct: Expressed in HEK293T cells for Co-IP; also called FLAG-VPS37A^FL; pDest-FLAG-VPS37A^Full; not shown: FLAG tag
T1 sequence (looked up): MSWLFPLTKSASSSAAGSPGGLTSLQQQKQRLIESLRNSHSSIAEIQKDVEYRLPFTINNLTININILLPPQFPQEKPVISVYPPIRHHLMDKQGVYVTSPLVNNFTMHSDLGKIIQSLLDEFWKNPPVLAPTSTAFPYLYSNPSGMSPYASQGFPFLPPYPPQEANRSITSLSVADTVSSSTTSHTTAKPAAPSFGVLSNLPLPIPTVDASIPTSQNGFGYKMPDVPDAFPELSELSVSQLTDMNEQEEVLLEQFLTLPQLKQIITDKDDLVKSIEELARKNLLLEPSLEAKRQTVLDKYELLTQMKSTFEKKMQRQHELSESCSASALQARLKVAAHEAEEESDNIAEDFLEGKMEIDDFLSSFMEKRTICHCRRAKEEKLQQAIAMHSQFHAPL

T2: Myc-UEV^VPS37A (UEV domain of VPS37A only) (UniProt Q8NEZ2 23-217, [35S]-methionine radiolabel)
T2 construct: domain: UEV; the legend is followed; The limits 23-217 are stated for the AlphaFold input, not expressly for the clone; also called Myc-UEV^VP37A; not shown: Myc tag
T2 sequence (looked up): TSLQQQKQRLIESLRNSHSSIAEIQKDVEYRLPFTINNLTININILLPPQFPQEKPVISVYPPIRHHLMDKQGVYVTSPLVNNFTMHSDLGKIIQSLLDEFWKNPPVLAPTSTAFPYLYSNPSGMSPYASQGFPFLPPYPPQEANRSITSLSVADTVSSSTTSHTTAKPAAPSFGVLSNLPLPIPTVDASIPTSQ


Tests used:
GST-LC3B = GST-LC3B (UniProt Q9GZQ8 1-125); assay: GST pulldown of in vitro translated [35S] Myc-VPS37A
Excerpt: Myc-VPS37A with GST or GST tagged LC3A, LC3B, LC3C, GABARAP, GABARAP-L1 and GABARAP-L2. 2% of input was loaded. 1B, AlphaFold predicted complexes between VPS37^{AdeltaCEV} and GABARAP. 1C, Schematic representation of HaloTag (HT)-LC3B MIL/MPL assay adapted for quantitative high content microscopy (HCM). MIL⁺ profiles, HT-LC3B accessible to membrane impermeant ligand; MPL⁺ profiles, HT-LC3B remaining available (not saturated with MIL) to membrane permeant ligand. 1D, MIL/MPL assay in HeLa^WT and HeLa^HexaKO expressing HT-LC3B, starved in EBSS for 90 min±100 nM BafA1. Cells were sequentially incubated with HT ligands MIL and MPL, and HCM quantification carried out; (d-i) MIL-accessible membrane-bound HT-LC3B; (d-ii) MPL-accessible membrane-bound HT-LC3B (remaining available to MPL after MIL saturation). (d-iii) MIL/MPL puncta ratio. […]

[1] = target: T1, FLAG-VPS37A (full length); assay: Co-IP of FLAG-VPS37A and GFP-GABARAP in HEK293T cells (FIG. 7A)
Excerpt: (§1) 7A, Co-IP analysis of interactions between FLAG-VPS37A and GFP-LC3A and GFP-GABARAP (GABA) in HEK293T cells. 5% of input was loaded. 7B, Schematic of VPS37A full length and deletion constructs: (i) VPS37A^FL, full length, (ii) VPS37A^deltaUEV deletion of UEV (cyan), (iii) UEV^VPS37A, UEV domain only (cyan), (iv) VPS37A^{deltaN(1-90)} deletion of residues 1-90, (v) VPS37A^{deltaN(1-20)}, deletion of residues 1-20 (red), (vi) VPS37A^{Nter-EGFP}, N-ter 1-22 chimera with GFP. 7C, GST-Pull down of Myc-UEV^VP37A and Myc-VPS37AdeltaCEV with GST or GST-LC3A, GST-LC3C and GST-GABARAP, 2% of Input was loaded. 7D, Co-IP between GFP-LC3A with FLAG-VPS37A^FL, UEV^VPS37A and VPS37A^deltaCEV. 7E, VPS37AdeltaCEV AlphaFold predicted structure; sequence, 1-22 residues, N-terminus of VPS37A (red, residues predicted to contact mATG8s. 7F, Representation of AlphaFold predicted complexes (rank 1; VPS37A^deltaCEV and GABARAP). 7G,7H Co-IP analyses in HEK293T cells expressing FLAG-VPS37A and GFP-LC3A (in 7H) or GFP-GABARAP (in 7G).
Immunoblotting and co-immunoprecipitation assays. Immunoblotting and co-immunoprecipitation (Co-IP) were performed as described previously⁴. For Co-IP, 10 cm dish cells were transfected with 12 μg of plasmids, wherever stated, and lysed in NP-40 buffer containing protease inhibitor cocktail (Roche, cat #11697498001) and PMSF (Sigma, cat #93482). […]

[2] = target: T2, Myc-UEV^VPS37A (UEV domain of VPS37A …); assay: GST pulldown of in vitro translated Myc-tagged protein (FIG. 7C)
Excerpt: as §1
GST pull-down Assay. Recombinant GST and GST-fusion proteins were produced in Escherichia coli SoluBL21 (Genlantis, #C700200) by inducing expression in overnight cultures with 50-75 μg/mL isopropyl β-D-1-thiogalactopyranoside (IPTG). Expressed proteins were purified by immobilization on Glutathione Sepharose 4 Fast Flow beads (GE Healthcare, #17-5132-01). […]

| Binder | binding result [2] | also measured |
| --- | --- | --- |
| Myc-VPS37A (in vitro translated, [35S]-radiolabeled, full length) (other, [35S]-methionine radiolabel, In vitro translated in reticulocyte lysate; also called VPS37A^FL; not shown: Myc tag) MSWLFPLTKSASSSAAGSPGGLTSLQQQKQRLIESLRNSHSSIAEIQKDVEYRLPFTINNLTININILLPPQFPQEKPVISVYPPIRHHLMDKQGVYVTSPLVNNFTMHSDLGKIIQSLLDEFWKNPPVLAPTSTAFPYLYSNPSGMSPYASQGFPFLPPYPPQEANRSITSLSVADTVSSSTTSHTTAKPAAPSFGVLSNLPLPIPTVDASIPTSQNGFGYKMPDVPDAFPELSELSVSQLTDMNEQEEVLLEQFLTLPQLKQIITDKDDLVKSIEELARKNLLLEPSLEAKRQTVLDKYELLTQMKSTFEKKMQRQHELSESCSASALQARLKVAAHEAEEESDNIAEDFLEGKMEIDDFLSSFMEKRTICHCRRAKEEKLQQAIAMHSQFHAPL |  | binding result (GST-LC3B): no binding |
| GFP-GABARAP (other, UniProt O95166 1-116, looked up, Expressed in HEK293T cells for Co-IP; also called GFP-GABARAP (GABA); pDest-GFP-GABARAP; not shown: GFP) MKFVYKEEHPFEKRRSEGEKIRKKYPDRVPVIVEKAPKARIGDLDKKKYLVPSDLTVGQFYFLIRKRIHLRAEDALFFFVNNVIPPTSATMGQLYQEHHEEDFFLYIAYSDESVYG |  | binding result [1]: binds |
| GST-LC3C (other, UniProt Q9BXW4 1-147, looked up, Recombinant, made in E. coli, held on glutathione Sepharose beads; also called GTS-LC3C; not shown: GST tag) MPPPQKIPSVRPFKQRKSLAIRQEEVAGIRAKFPNKIPVVVERYPRETFLPPLDKTKFLVPQELTMTQFLSIIRSRMVLRATEAFYLLVNNKSLVSMSATMAEIYRDYKDEDGFVYMTYASQETFGCLESAAPRDGSSLEDRPCNPL | no binding |  |
| GST-GABARAP (other, UniProt O95166 1-117, looked up, Recombinant, made in E. coli, held on glutathione Sepharose beads; not shown: GST tag) MKFVYKEEHPFEKRRSEGEKIRKKYPDRVPVIVEKAPKARIGDLDKKKYLVPSDLTVGQFYFLIRKRIHLRAEDALFFFVNNVIPPTSATMGQLYQEHHEEDFFLYIAYSDESVYGL | no binding |  |
